Experimental findings from PMC7893173 are described below.

For experiment [1], the target named is HSV-1 nuclear egress complex NEC220 (UL31 1–306 with UL34 1–220) (herpes simplex virus type 1) (UniProt P10215).
Experiment [2] shares this target. This is another data set of the same source.
Experiment [3] has the same target. The source holds these as a separate data set.

For “HSV-1 UL25∆44 Q72A (from UniProt P10209 45-580) (domain or fragment)”, the inhibition of NEC220-mediated budding of giant unilamellar vesicles in vitro (1 μM NEC220; not inhibitory at NEC:UL25 1:1, value at 1:10) (% reduction in budding) in experiment [1] came to 90.

“UL25^native(45–94) peptide (from UniProt P10209 45-94)” returned an inhibition of NEC220-mediated budding of giant unilamellar vesicles in vitro (1 μM NEC220; NEC:peptide 1:0.1, 1:0.3, 1:0.6, 1:1 and 1:10; maximal effect at 1:1) (% reduction in budding) in experiment [2] of 75.

B1: (EAEKAAK)7EAEK peptide (peptide)
peptide: EAEKAAKEAEKAAKEAEKAAKEAEKAAKEAEKAAKEAEKAAKEAEKAAKEAEK
Take B1: in experiment [3], the inhibition of NEC220-mediated budding of giant unilamellar vesicles in vitro (1 μM NEC220; not inhibitory at NEC:peptide 1:1, value at 1:10) (% reduction in budding) worked out at 50.
